Here are results for one molecule from patent US20210302413A1 (Johns Hopkins, published 2021).

The target of this assay is T1, endogenous human zinc transporter 8 (ZnT8) in EndoC-βH1 cells (human, UniProt Q8IWU4 1-369).
T1 construct: whole, on cells; Intracellular membrane protein, probed in fixed and permeabilised cells (in-cell ELISA), in SDS lysates (immunoblot) or in liposomes (SUVs) made from the cells; On blots two natural splice variants (A and B) are detected; also called endogenous ZnT8; SLC30A8 product
T1 sequence (looked up): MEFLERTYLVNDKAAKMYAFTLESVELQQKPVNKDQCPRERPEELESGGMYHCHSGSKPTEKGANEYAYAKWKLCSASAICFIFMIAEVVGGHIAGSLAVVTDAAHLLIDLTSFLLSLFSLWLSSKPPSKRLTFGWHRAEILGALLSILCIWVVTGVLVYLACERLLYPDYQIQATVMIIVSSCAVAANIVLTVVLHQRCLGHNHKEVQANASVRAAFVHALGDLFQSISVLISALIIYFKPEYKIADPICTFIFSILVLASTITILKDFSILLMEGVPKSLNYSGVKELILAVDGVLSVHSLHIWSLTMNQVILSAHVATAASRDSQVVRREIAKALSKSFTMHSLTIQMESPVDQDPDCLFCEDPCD
The assay is described as follows: in-cell ELISA, 95×10^3 EndoC-βH1 cells against the same number of rat INS-1E cells. As to the method: Next, mAb20 or a rabbit anti-HLA-I antibody (Proteintech, Cat. #15240-1-AP) was 1:600 or 1:60 diluted to Permeabilization/Wash Buffer I plus 0.5% BSA. Cells in each well were incubated with the diluted antibody solution for 2 hr at 37° C., washed once, and then exposed to a HRP-conjugated anti-mouse IgG (H+L) (Invitrogen, Cat. #62-6520) or anti-rabbit IgG (H+L) antibody (Invitrogen, Cat. #62-6120) in a 1:3000 dilution in Permeabilization/Wash Buffer I plus 0.1% BSA. After 1 hr incubation with the secondary antibody at RT, cells were washed three times to remove unbound antibodies before adding SuperSignal ELISA Femto Substrate (ThermoFisher Scientific, Cat. #37075). The HRP reaction was terminated at 5 min by transferring the reaction mixture to a 96-well opaque microplate for chemiluminescence quantification on a FlexStation-3 multi-mode microplate reader.
Assay validation. A ZnT8-specific ELISA was developed to track the endogenous ZnT8 level in EndoC-βH1 cells immobilized to a 96-well plate by paraformaldehyde fixation, followed by immunostaining and horseradish peroxidase (HRP) chemiluminescence. The non-specific background was estimated using rat insulinoma INS-1E and human HEK293 cells as negative controls. […] The signal-to-noise ratio at 95×10^3 cells was 3.9 (Z′ score=0.8) over a background detected from a same number of INS-1E cells (FIG. 1A). […]
(ELISA stands for enzyme-linked immunosorbent assay.)

B1: anti-ZnT8 monoclonal antibody mAb20 (antibody, mouse IgG1, kappa, V domains shown)
VH: QIQLVQSGPELKKPGETVKISCKASGYIFTNYPMHWVKQAPGKGLKWMGWINTYSGVPTHADDFKGRFAFSLETSANSAFLQINNLKNEDTATYFCTRSRITPTGGYAMDYWGQGTSVTVSS
VL: DVVMTQTPLSLPVSLGDQASISCRSSQSLVHSNGNTYLHWYLQKPGQSPNLLISKVSNRFSGVPERFSGSGSGTDFTLKISRVEAEDLGVYFCSQNTHVPWTFGGGTKLEIKR
notes: Mouse monoclonal antibody; Used free (1:600 of a 1 mg/ml stock), biotinylated, or crosslinked to Dynabeads through NHS-PEG5K-NHS; also called mouse mAb20; biotinylated mAb20
As for B1, the signal-to-noise ratio stood at 3.9.
